Measurements as given in article PMC11199699.

Columns and labels:
Test in all cases: purified protein
[1] = substrate: O=C(O)[C@@H]1C[C@@H](O)CN1; format: biochemical, Herbaspirillum huttiense; settings: 1.5 mM NAD+, 50 mM Tris-HCl pH 8.0, 30 °C
[2] = substrate: O=C(O)C(=O)C[C@H](O)[C@H](O)CO; format: biochemical, Herbaspirillum huttiense; settings: 1.5 mM NAD+, 50 mM Tris-HCl pH 8.0, 30 °C
[3] = substrate: O=C(O)C(=O)C[C@H](O)CO; format: biochemical, Herbaspirillum huttiense; settings: 1.5 mM NAD+, 50 mM Tris-HCl pH 8.0, 30 °C
[4] = substrate: NC(=O)c1ccc[n+]([C@@H]2O[C@H](COP(=O)(O)OP(=O)(O)OC[C@H]3O[C@@H](n4cnc5c(N)ncnc54)[C@H](O)[C@@H]3O)[C@@H](O)[C@H]2O)c1; format: biochemical, Herbaspirillum huttiense; settings: 10 mM substrate, 50 mM Tris-HCl pH 8.0, 30 °C, varied: cofactor
[5] = substrate: O=C(O)C(=O)C[C@H](O)[C@@H](O)CO; format: biochemical, Herbaspirillum huttiense; settings: 1.5 mM NAD+, 50 mM Tris-HCl pH 8.0, 30 °C
[6] = substrate: C[C@@H](O)CC(=O)O; format: biochemical, Herbaspirillum huttiense; settings: 1.5 mM NAD+, 50 mM Tris-HCl pH 8.0, 30 °C
[7] = substrate: NC(=O)c1ccc[n+]([C@@H]2O[C@H](COP(=O)(O)OP(=O)(O)OC[C@H]3O[C@@H](n4cnc5c(N)ncnc54)[C@H](OP(=O)(O)O)[C@@H]3O)[C@@H](O)[C@H]2O)c1; format: biochemical, Herbaspirillum huttiense; settings: 10 mM substrate, 50 mM Tris-HCl pH 8.0, 30 °C, varied: cofactor
[8] = substrate: O=C(O)[C@H]1C[C@@H](O)CN1; format: biochemical, Herbaspirillum huttiense; settings: 1.5 mM NAD+, 50 mM Tris-HCl pH 8.0, 30 °C, substrate range 1-10 mM (Km extrapolated)
[9] = substrate: O=C(O)[C@@H]1C[C@H](O)CN1; format: biochemical, Herbaspirillum huttiense; settings: 1.5 mM NAD+, 50 mM Tris-HCl pH 8.0, 30 °C
[10] = substrate: O=C(O)C(=O)C[C@@H](O)CO; format: biochemical, Herbaspirillum huttiense; settings: 1.5 mM NAD+, 50 mM Tris-HCl pH 8.0, 30 °C
[11] = substrate: C[C@H](O)[C@@H](O)CC(=O)C(=O)O; format: biochemical, Herbaspirillum huttiense; settings: 1.5 mM NAD+, 50 mM Tris-HCl pH 8.0, 30 °C
[12] = substrate: C[C@@H](O)CC(=O)O; format: biochemical, Homo sapiens; settings: 1.5 mM NAD+, 50 mM Tris-HCl pH 8.0, 30 °C, substrate range 1-10 mM (Km extrapolated)
[13] = substrate: O=C(O)[C@@H]1C[C@H](O)CN1; format: biochemical, Homo sapiens; settings: 1.5 mM NAD+, 50 mM Tris-HCl pH 8.0, 30 °C
[14] = substrate: C[C@H](O)[C@@H](O)CC(=O)C(=O)O; format: biochemical, Homo sapiens; settings: 1.5 mM NAD+, 50 mM Tris-HCl pH 8.0, 30 °C

B1: L-KDFDH (FucF; C785_RS13675) (Herbaspirillum huttiense subsp. putei IAM 15032) (protein)
chain: MSASTGRLAGKTVLITAAAQGIGRASTELFAREGARVIATDISKTHLEELASIAGVETHLLDVTDDDAIKALVAKVGTVDVLFNCAGYVAAGNILECDDKAWDFSFNLNAKAMFHTIRAVLPGMLAKKAGSIVNIASAASSVKGVANRFAYGASKAAVVGLTKSVAADFVSQGIRCNAICPGTIESPSLNQRISTQAKETGKSEDEVRAAFVARQPMGRIGKAEEVAALALYLASDESNFTTGSIHMIDGGWSN
notes: pQE-80L, N-terminal (His)6-tag, expressed in E. coli, Ni-NTA; homotetramer; EC 1.1.1.434
[1]
  Km: 2.26 ± 0.27 mM
  kcat: 0.00165 ± 0.000105 s⁻¹
  kcat/Km: 0.737 ± 0.045 M⁻¹ s⁻¹
[2]
  Km: 6.60 ± 0.55 mM
  kcat: 8.25 ± 0.35 s⁻¹
  kcat/Km: 1250 ± 55 M⁻¹ s⁻¹
[3]
  Km: 2.58 ± 0.24 mM
  kcat: 27.5 ± 2.03 s⁻¹
  kcat/Km: 10700 ± 267 M⁻¹ s⁻¹
[4]
  Km: 0.0302 ± 0.003 mM
  kcat: 29.2 ± 1.3 s⁻¹
  kcat/Km: 972000 ± 58700 M⁻¹ s⁻¹
[5]
  Km: 0.808 ± 0.073 mM
  kcat: 19.8 ± 1.2 s⁻¹
  kcat/Km: 24700 ± 750 M⁻¹ s⁻¹
[6]
  Km: 1.79 ± 0.57 mM
  kcat: 0.00137 ± 0.000167 s⁻¹
  kcat/Km: 0.795 ± 0.137 M⁻¹ s⁻¹
[7]
  Km: 1.77 ± 0.30 mM
  kcat: 0.0678 ± 0.01 s⁻¹
  kcat/Km: 38.5 ± 1 M⁻¹ s⁻¹
[8]
  Km: 37.8 ± 11.5 mM
[9]
  Km: 4.19 ± 0.35 mM
  kcat: 0.742 ± 0.0233 s⁻¹
  kcat/Km: 178 ± 10 M⁻¹ s⁻¹
[10]
  Km: 5.51 ± 0.66 mM
  kcat: 3.37 ± 0.183 s⁻¹
  kcat/Km: 615 ± 36.7 M⁻¹ s⁻¹
[11]
  Km: 0.115 ± 0.015 mM
  kcat: 15 ± 0.317 s⁻¹
  kcat/Km: 132000 ± 14000 M⁻¹ s⁻¹

B2: L-KDFDH (FucF; C785_RS13675) (Herbaspirillum huttiense subsp. putei IAM 15032; D41S/I42R) (protein)
chain: MSASTGRLAGKTVLITAAAQGIGRASTELFAREGARVIATSRSKTHLEELASIAGVETHLLDVTDDDAIKALVAKVGTVDVLFNCAGYVAAGNILECDDKAWDFSFNLNAKAMFHTIRAVLPGMLAKKAGSIVNIASAASSVKGVANRFAYGASKAAVVGLTKSVAADFVSQGIRCNAICPGTIESPSLNQRISTQAKETGKSEDEVRAAFVARQPMGRIGKAEEVAALALYLASDESNFTTGSIHMIDGGWSN
notes: as for B1
[7]
  Km: 0.200 ± 0.004 mM
  kcat: 3.6 ± 0.0667 s⁻¹
  kcat/Km: 18050 ± 83.3 M⁻¹ s⁻¹

B3: L-KDFDH (FucF; C785_RS13675) (Herbaspirillum huttiense subsp. putei IAM 15032; W252M) (protein)
chain: MSASTGRLAGKTVLITAAAQGIGRASTELFAREGARVIATDISKTHLEELASIAGVETHLLDVTDDDAIKALVAKVGTVDVLFNCAGYVAAGNILECDDKAWDFSFNLNAKAMFHTIRAVLPGMLAKKAGSIVNIASAASSVKGVANRFAYGASKAAVVGLTKSVAADFVSQGIRCNAICPGTIESPSLNQRISTQAKETGKSEDEVRAAFVARQPMGRIGKAEEVAALALYLASDESNFTTGSIHMIDGGMSN
notes: as for B1
[11]
  Km: 0.219 ± 0.006 mM
  kcat: 6.62 ± 0.167 s⁻¹
  kcat/Km: 30000 ± 83.3 M⁻¹ s⁻¹

B4: BDH2 (Homo sapiens) (protein)
chain: MGRLDGKVIILTAAAQGIGQAAALAFAREGAKVIATDINESKLQELEKYPGIQTRVLDVTKKKQIDQFANEVERLDVLFNVAGFVHHGTVLDCEEKDWDFSMNLNVRSMYLMIKAFLPKMLAQKSGNIINMSSVASSVKGVVNRCVYSTTKAAVIGLTKSVAADFIQQGIRCNCVCPGTVDTPSLQERIQARGNPEEARNDFLKRQKTGRFATAEEIAMLCVYLASDESAYVTGNPVIIDGGWSL
notes: recombinant (His)6-tagged, expressed in E. coli, purified
[12]
  Km: 18.5 ± 2.9 mM
  kcat: 0.0698 ± 0.00483 s⁻¹
  kcat/Km: 3.8 ± 0.333 M⁻¹ s⁻¹
[13]
  Km: 0.220 ± 0.061 mM
  kcat: 4.88 ± 0.5 s⁻¹
  kcat/Km: 22800 ± 3670 M⁻¹ s⁻¹
[14]
  Km: 0.0322 ± 0.0033 mM
  kcat: 3.67 ± 0.183 s⁻¹
  kcat/Km: 114000 ± 5830 M⁻¹ s⁻¹
